Laboratory results from paper PMC3229523, “Identification of Lactoferricin B Intracellular Targets Using an Escherichia coli Proteome Chip” (PLoS ONE, 2011).
Ends that are not written are not given here. * marks the point of attachment. Biotin = O=C1N[C@H]2[C@H](CS[C@H]2CCCCC(=O)*)N1

Assays:
Assay in all cases: peptide or protein array; E. coli proteome chip: purified His-tagged proteins printed in duplicate on Fullmoon slides, blocked with 1% BSA; 10 nM N-terminal biotinylated LfcinB with 1% BSA, room temperature, 1 h; detected with DyLight 649-labeled streptavidin, ratio to DyLight 549-labeled anti-His antibody; ProCAT normalisation, local cut-off; triplicate chips
Settings in all cases: both partners purified
[1] = target: T1, YgfJ (E. coli K-12, UniProt Q46810 1-192)
T1 construct: YgfJ, E. coli K-12
T1 sequence (looked up): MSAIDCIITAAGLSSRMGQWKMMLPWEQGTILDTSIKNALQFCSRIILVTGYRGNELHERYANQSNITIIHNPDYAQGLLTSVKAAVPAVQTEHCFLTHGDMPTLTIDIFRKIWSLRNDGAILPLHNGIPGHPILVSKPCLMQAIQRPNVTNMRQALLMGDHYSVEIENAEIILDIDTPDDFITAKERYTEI

[2] = target: T2, YtfI (E. coli K-12, UniProt P39317 1-312)
T2 construct: YtfI, E. coli K-12
T2 sequence (looked up): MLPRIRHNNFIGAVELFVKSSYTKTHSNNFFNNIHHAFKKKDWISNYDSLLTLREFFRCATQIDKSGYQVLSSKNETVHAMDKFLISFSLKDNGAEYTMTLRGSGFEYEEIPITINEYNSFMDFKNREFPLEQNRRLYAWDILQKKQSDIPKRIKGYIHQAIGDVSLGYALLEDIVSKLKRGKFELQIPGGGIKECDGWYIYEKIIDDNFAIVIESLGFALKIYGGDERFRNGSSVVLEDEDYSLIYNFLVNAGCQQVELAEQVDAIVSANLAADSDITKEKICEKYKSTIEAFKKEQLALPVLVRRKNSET

[3] = target: T3, YbaE (E. coli K-12, UniProt P46890 1-566)
T3 construct: YbaE, E. coli K-12
T3 sequence (looked up): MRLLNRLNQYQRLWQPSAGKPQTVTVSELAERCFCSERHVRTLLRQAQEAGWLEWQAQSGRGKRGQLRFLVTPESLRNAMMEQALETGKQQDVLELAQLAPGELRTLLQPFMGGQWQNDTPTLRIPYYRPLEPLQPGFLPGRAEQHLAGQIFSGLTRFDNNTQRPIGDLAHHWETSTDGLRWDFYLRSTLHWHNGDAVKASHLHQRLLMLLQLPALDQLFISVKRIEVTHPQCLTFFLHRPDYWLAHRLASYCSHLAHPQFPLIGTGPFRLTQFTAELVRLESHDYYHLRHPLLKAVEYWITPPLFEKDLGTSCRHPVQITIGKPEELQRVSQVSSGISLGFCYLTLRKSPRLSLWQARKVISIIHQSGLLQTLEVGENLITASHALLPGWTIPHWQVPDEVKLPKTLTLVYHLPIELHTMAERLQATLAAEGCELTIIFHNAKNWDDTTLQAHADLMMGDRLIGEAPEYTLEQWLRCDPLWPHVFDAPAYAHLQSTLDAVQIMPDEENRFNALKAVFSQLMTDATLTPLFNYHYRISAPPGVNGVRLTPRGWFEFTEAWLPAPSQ

[4] = target: T4, GlpK (E. coli K-12, UniProt P0A6F3 1-502)
T4 construct: GlpK, E. coli K-12
T4 sequence (P0A6F3 whole entry): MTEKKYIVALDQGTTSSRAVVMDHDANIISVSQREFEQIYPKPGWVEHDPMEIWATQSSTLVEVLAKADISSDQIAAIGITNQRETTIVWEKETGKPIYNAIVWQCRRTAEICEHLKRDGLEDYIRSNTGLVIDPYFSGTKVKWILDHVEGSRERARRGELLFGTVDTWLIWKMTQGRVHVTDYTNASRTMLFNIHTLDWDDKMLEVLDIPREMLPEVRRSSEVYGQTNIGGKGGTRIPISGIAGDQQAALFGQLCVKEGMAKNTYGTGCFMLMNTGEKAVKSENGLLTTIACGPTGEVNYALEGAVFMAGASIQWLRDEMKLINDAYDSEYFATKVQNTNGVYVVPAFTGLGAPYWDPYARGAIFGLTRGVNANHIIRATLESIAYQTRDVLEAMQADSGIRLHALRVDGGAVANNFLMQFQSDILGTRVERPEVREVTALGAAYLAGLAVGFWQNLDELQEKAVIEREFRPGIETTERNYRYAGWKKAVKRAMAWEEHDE

[5] = target: RplW (E. coli K-12, UniProt P0ADZ0 1-100)
[6] = target: T5, FlgC (E. coli K-12, UniProt P0ABX2 1-134)
T5 construct: FlgC, E. coli K-12
T5 sequence (looked up): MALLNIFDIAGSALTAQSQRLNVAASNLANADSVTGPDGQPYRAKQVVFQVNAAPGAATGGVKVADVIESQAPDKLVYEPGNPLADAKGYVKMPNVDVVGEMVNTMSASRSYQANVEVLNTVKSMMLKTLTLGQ

[7] = target: MalP (E. coli K-12, UniProt P00490 1-797)
[8] = target: T6, YheH (E. coli K-12, UniProt P45760 7-125)
T6 construct: YheH, E. coli K-12
T6 sequence (looked up): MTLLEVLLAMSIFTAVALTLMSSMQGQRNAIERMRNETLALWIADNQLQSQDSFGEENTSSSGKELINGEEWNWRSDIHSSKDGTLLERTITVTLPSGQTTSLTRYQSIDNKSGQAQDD

Measured: binding result

B1: N-terminal biotinylated Lactoferricin B (peptide, UniProt P24627 36-60, looked up)
peptide: Biotin-FKCRRWQWRMKKLGAPSITCVRRAF
modifications: ends and bridges not checked
notes: lactoferricin B (LfcinB), cationic antimicrobial peptide of 25 amino acids; also called biotinylated LfcinB; biotin-labeled LfcinB; source: bought: Kelowna Inc
binds: [1] | [2] | [3] | [4] | [5] | [6] | [7] | [8]
